Experimental findings from doi:10.1101/049148 are described below.

The target of test [1] is Heh2-VN (budding yeast (endogenously tagged)) (UniProt Q03281). Put plainly: split reporter.
For test [2], the target named is Heh1-VN (budding yeast (endogenously tagged)) (UniProt Q03707). Put plainly: split reporter.
Chain of UniProt Q03707 (Q03707 whole entry): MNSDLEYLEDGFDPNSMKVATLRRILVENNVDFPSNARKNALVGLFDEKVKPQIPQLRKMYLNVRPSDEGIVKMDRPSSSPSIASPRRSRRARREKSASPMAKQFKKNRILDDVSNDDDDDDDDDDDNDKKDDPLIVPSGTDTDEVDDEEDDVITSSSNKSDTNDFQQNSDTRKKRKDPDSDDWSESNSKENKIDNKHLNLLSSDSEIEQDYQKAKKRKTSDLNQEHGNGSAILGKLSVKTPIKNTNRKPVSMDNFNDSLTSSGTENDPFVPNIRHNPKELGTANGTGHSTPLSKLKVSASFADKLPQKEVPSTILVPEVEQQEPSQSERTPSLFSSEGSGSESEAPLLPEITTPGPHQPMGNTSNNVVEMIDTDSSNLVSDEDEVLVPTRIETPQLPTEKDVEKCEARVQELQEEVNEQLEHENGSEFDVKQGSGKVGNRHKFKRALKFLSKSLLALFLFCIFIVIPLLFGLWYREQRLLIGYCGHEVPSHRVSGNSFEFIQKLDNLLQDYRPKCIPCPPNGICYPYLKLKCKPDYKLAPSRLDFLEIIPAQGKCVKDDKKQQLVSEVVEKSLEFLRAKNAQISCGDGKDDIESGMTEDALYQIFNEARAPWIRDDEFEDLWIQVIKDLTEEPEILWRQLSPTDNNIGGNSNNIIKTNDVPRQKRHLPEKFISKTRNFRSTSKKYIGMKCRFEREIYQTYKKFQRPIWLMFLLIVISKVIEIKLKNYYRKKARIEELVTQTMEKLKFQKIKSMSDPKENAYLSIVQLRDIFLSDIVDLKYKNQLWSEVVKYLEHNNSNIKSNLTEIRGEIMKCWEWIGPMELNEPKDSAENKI

Chain of UniProt Q03281 (Q03281 whole entry): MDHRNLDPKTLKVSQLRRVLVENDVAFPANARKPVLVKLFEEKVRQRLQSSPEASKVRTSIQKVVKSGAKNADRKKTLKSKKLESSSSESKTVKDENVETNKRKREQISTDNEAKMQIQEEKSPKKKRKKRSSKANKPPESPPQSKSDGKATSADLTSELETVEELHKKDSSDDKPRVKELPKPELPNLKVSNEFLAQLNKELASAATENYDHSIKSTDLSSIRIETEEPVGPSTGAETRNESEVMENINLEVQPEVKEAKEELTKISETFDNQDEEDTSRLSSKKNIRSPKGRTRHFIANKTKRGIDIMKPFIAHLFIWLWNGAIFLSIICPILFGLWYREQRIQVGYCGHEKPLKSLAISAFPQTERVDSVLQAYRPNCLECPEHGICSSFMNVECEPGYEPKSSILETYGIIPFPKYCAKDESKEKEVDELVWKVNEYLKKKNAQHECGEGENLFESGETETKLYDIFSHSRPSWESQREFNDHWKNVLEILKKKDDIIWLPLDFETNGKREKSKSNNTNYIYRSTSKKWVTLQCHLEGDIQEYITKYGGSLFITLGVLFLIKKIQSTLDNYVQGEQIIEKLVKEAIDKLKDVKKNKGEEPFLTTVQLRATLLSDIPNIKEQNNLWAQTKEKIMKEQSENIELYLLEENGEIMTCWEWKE

Take Chm7-VC (natural protein): the percent of cells with a BiFC focus in test [1] stood at 3%; in test [2], 28%.
